Measured values reported in PMC10297652, “Large-Scale Production of Anti-RNase A VHH Expressed in pyrG Auxotrophic Aspergillus oryzae” (Current Issues in Molecular Biology, 2023).

Target: T1, RNase A (Bos taurus (assumed; commercial RNase …, UniProt P61823)
T1 construct: RNase A (ribonuclease A), about 13.7 kDa, commercial; also called ribonuclease A; source: bought: Biofroxx (1263MG050)
Assay: SPR; BIAcore T200, CM5 chip; Asp. VHH captured on flow cell 4; RNase A injected at 0, 2, 10, 50 nM, multi-cycle kinetics; HBS-EP+ pH 7.4; 25 °C; 1:1 binding model
Details: both partners purified

T1 sequence (P61823 27-150): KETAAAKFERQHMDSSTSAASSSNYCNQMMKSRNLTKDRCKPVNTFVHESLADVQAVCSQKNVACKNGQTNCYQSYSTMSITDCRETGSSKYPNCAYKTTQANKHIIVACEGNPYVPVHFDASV

- Kd: 1.91 nM
B1: anti-RNase A VHH expressed in pyrG auxotrophic Aspergillus oryzae (VHH)
VHH: QVQLVESGGGLVQAGGSLRLSCAASGYAYTYIYMGWFRQAPGKEREGVAAMDSGGGGTLYADSVKGRFTISRDKGKNTVYLQMDSLKPEDTATYYCAAGGYELRDRTYGQWGQGTQVTVSS
notes: DNA codon-optimized; about 13 kDa; also called Asp; VHH; anti-ribonuclease A VHH; source: pyrG(-) A. oryzae RIB40, secreted into the culture medium, purified (Ni-NTA IMAC, PD-10 desalting, Superdex 200 SEC); not shown: 8xHis, C-terminal, kept
